The values below come from IntAct's records for PubMed 20173742.

The chains are these.
B1: Kelch-like ECH-associated protein 1 (Mus musculus), Q9Z2X8 (parent)
chain: MQPEPKLSGAPRSSQFLPLWSKCPEGAGDAVMYASTECKAEVTPSQDGNRTFSYTLEDHTKQAFGVMNELRLSQQLCDVTLQVKYEDIPAAQFMAHKVVLASSSPVFKAMFTNGLREQGMEVVSIEGIHPKVMERLIEFAYTASISVGEKCVLHVMNGAVMYQIDSVVRACSDFLVQQLDPSNAIGIANFAEQIGCTELHQRAREYIYMHFGEVAKQEEFFNLSHCQLATLISRDDLNVRCESEVFHACIDWVKYDCPQRRFYVQALLRAVRCHALTPRFLQTQLQKCEILQADARCKDYLVQIFQELTLHKPTQAVPCRAPKVGRLIYTAGGYFRQSLSYLEAYNPSNGSWLRLADLQVPRSGLAGCVVGGLLYAVGGRNNSPDGNTDSSALDCYNPMTNQWSPCASMSVPRNRIGVGVIDGHIYAVGGSHGCIHHSSVERYEPERDEWHLVAPMLTRRIGVGVAVLNRLLYAVGGFDGTNRLNSAECYYPERNEWRMITPMNTIRSGAGVCVLHNCIYAAGGYDGQDQLNSVERYDVETETWTFVAPMRHHRSALGITVHQGKIYVLGGYDGHTFLDSVECYDPDSDTWSEVTRMTSGRSGVGVAVTMEPCRKQIDQQNCTC
partner: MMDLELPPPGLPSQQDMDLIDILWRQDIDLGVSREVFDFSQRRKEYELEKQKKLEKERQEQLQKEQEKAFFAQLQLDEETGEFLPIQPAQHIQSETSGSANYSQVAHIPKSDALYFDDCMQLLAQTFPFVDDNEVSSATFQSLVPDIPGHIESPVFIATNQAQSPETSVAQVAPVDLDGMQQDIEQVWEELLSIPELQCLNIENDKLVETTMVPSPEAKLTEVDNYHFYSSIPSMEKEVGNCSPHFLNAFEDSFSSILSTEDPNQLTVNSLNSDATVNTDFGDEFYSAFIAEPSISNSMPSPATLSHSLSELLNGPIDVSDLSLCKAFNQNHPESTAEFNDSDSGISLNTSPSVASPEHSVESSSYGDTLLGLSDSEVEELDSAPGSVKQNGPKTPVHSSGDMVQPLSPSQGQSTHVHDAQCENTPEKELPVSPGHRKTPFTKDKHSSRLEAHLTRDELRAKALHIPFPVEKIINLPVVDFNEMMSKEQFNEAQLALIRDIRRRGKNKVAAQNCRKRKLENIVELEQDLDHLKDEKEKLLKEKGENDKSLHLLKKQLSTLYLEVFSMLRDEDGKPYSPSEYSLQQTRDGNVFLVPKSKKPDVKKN

In the assay the parent is B1. Conditions: with nf2l2_human NFE2L2, Q16236.
Consider N382A, for which the “effect of a mutation on the interaction” value is “disrupting interaction”. On to Q530A, for which the “effect of a mutation on the interaction” value is given as “decreasing interaction”. As to S555A, the “effect of a mutation on the interaction” value is given as “decreasing interaction”. Turning to S602A, the “effect of a mutation on the interaction” value was “disrupting interaction”. Turning to S363A, the “effect of a mutation on the interaction” value is on record as “disrupting interaction”.

As for R380A, the “effect of a mutation on the interaction” value is “decreasing interaction”. With S508A, the “effect of a mutation on the interaction” value is on record as “disrupting interaction”. To Y334A belongs “disrupting interaction”.

Turning to R415A, the “effect of a mutation on the interaction” value is reported as “disrupting interaction”.
